Results on 57 variants are retold here after the RNAGym collection of RNA variant scans (doi:10.7554/elife.80360).

B1: Hammerhead Ribozyme (parent)
chain: ACCGGAUGUGCUUUCCGGUCUGAUGAGUCCGUGAGGACGAAACAG

The variants in this series derive from B1. Briefly: self-cleavage, relative activity (ratio to wild type); higher = more cleavage; co-transcriptional.
Take ACCGGAUGUGCUUUCAGGUCUGAUGAUUCCGUGAGGACGAAACAG [C16A G27U]: the self-cleavage is 0.534.
The figure for ACCGGAUGUGCUUUCAGGUCUGAUGAAUCCGUGAGGACGAAACAG [C16A G27A] is 0.715; for ACCGGAUGUGCUUUCAGGUCUGAUGACUCCGUGAGGACGAAACAG [C16A G27C] it is 0.571; for ACCGGAUGUGCUUUCGGGUCUGUUGAGUCCGUGAGGACGAAACAG [C16G A23U] it is 0.295.
The figure for ACCGGAUGUGCUUUCGGGUCUGCUGAGUCCGUGAGGACGAAACAG [C16G A23C] is 0.369; for ACCGGAUGUGCUUUCGGGUCUGGUGAGUCCGUGAGGACGAAACAG [C16G A23G] it is 0.406.
As to ACCGGAUGUGCUUUCAGGUCGGAUGAGUCCGUGAGGACGAAACAG [C16A U21G], the self-cleavage was 0.316.
The figure for ACCGGAUGUGCUUUCAGGUCCGAUGAGUCCGUGAGGACGAAACAG [C16A U21C] is 0.276; for ACCGGAUGUGCUUUCAGGUCAGAUGAGUCCGUGAGGACGAAACAG [C16A U21A] it is 0.668; for ACCGGAUGUGCUUUCGGAUCUGAUGAGUCCGUGAGGACGAAACAG [C16G G18A] it is 0.533.
The figure for ACCGGAUGUGCUUUCGGUUCUGAUGAGUCCGUGAGGACGAAACAG [C16G G18U] is 0.744.
With ACCGGAUGUGCUUUCGGCUCUGAUGAGUCCGUGAGGACGAAACAG [C16G G18C] the figure was 0.376; with ACCGGAUGUGCUUUCGGGUCUGAUGCGUCCGUGAGGACGAAACAG [C16G A26C], 0.305.
Turning to ACCGGAUGUGCUUUCGGGUCUGAUGGGUCCGUGAGGACGAAACAG [C16G A26G], the self-cleavage stood at 0.289.
Regarding ACCGGAUGUGCUUUCGGGUCUGAUGUGUCCGUGAGGACGAAACAG [C16G A26U], the self-cleavage was 0.433.
With ACCGGAUGUGCUUUCGGGACUGAUGAGUCCGUGAGGACGAAACAG [C16G U19A] the figure was 0.253; with ACCGGAUGUGCUUUCGGGGCUGAUGAGUCCGUGAGGACGAAACAG [C16G U19G], 0.33.
As for ACCGGAUGUGCUUUCGGGCCUGAUGAGUCCGUGAGGACGAAACAG [C16G U19C], the self-cleavage was found to be 0.344.
The figure for ACCGGAUGUGCUUUCAGGUCUGAUGAGUCCGUGAGGACUAAACAG [C16A G39U] is 0.336.
The figure for ACCGGAUGUGCUUUCAGGUCUGAUGAGUCCGUGAGGACCAAACAG [C16A G39C] is 0.337; for ACCGGAUGUGCUUUCAGGUCUGAUGAGUCCGUGAGGACAAAACAG [C16A G39A] it is 0.356.
With ACCGGAUGUGCUUUCGGGUCUGAUGAGUCCGUGUGGACGAAACAG [C16G A34U] the figure was 0.709; with ACCGGAUGUGCUUUCGGGUCUGAUGAGUCCGUGGGGACGAAACAG [C16G A34G], 0.655; with ACCGGAUGUGCUUUCGGGUCUGAUGAGUCCGUGCGGACGAAACAG [C16G A34C], 0.647.
Regarding ACCGGAUGUGCUUUCAGGUCUGACGAGUCCGUGAGGACGAAACAG [C16A U24C], the self-cleavage came out at 1.33.
The figure for ACCGGAUGUGCUUUCAGGUCUGAAGAGUCCGUGAGGACGAAACAG [C16A U24A] is 1.34.
For ACCGGAUGUGCUUUCAGGUCUGAGGAGUCCGUGAGGACGAAACAG [C16A U24G], the self-cleavage was found to be 0.87.
With ACCGGAUGUGCUUUCAGGUCUGAUGAGACCGUGAGGACGAAACAG [C16A U28A] the figure was 0.434; with ACCGGAUGUGCUUUCAGGUCUGAUGAGCCCGUGAGGACGAAACAG [C16A U28C], 0.722.
Take ACCGGAUGUGCUUUCAGGUCUGAUGAGGCCGUGAGGACGAAACAG [C16A U28G]: the self-cleavage was determined as 0.638.
On to ACCGGAUGUGCUUUCGGGUCUGAUGAGUUCGUGAGGACGAAACAG [C16G C29U], for which the self-cleavage came to 0.646.
With ACCGGAUGUGCUUUCGGGUCUGAUGAGUACGUGAGGACGAAACAG [C16G C29A] the figure was 0.39; with ACCGGAUGUGCUUUCGGGUCUGAUGAGUGCGUGAGGACGAAACAG [C16G C29G], 0.496; with ACCGGAUGUGCUUUCAGGACUGAUGAGUCCGUGAGGACGAAACAG [C16A U19A], 0.34.
Regarding ACCGGAUGUGCUUUCAGGGCUGAUGAGUCCGUGAGGACGAAACAG [C16A U19G], the self-cleavage is 0.295.
The figure for ACCGGAUGUGCUUUCAGGCCUGAUGAGUCCGUGAGGACGAAACAG [C16A U19C] is 0.39; for ACCGGAUGUGCUUUCGGGUCUGAUGAGUCCGUGAGGACGAAACAG [C16G] it is 1.02.
The figure for ACCGGAUGUGCUUUCGGGUCUGAUGAGUCCGUGAGCACGAAACAG [C16G G36C] is 0.362.
With ACCGGAUGUGCUUUCGGGUCUGAUGAGUCCGUGAGUACGAAACAG [C16G G36U] the figure was 0.314; with ACCGGAUGUGCUUUCGGGUCUGAUGAGUCCGUGAGAACGAAACAG [C16G G36A], 0.414; with ACCGGAUGUGCUUUCGGGUCUGAUGAGUCCGUGAGGACGAUACAG [C16G A41U], 0.393.
Consider ACCGGAUGUGCUUUCGGGUCUGAUGAGUCCGUGAGGACGAGACAG [C16G A41G], for which the self-cleavage worked out at 0.398.
For ACCGGAUGUGCUUUCGGGUCUGAUGAGUCCGUGAGGACGACACAG [C16G A41C], the self-cleavage is 0.376.
With ACCGGAUGUGCUUUCGGGUCAGAUGAGUCCGUGAGGACGAAACAG [C16G U21A] the figure was 0.349.
With ACCGGAUGUGCUUUCAGGUCUGAUGAGUCCGUGAGGACGAAACAC [C16A G45C] the figure was 0.501; with ACCGGAUGUGCUUUCAGGUCUGAUGAGUCCGUGAGGACGAAACAU [C16A G45U], 0.563.
With ACCGGAUGUGCUUUCAGGUCUGAUGAGUCCGUGAGGACGAAACAA [C16A G45A] the figure was 0.574; with ACCGGAUGUGCUUUCGGGUCUGAUGAGUCCGUAAGGACGAAACAG [C16G G33A], 0.994; with ACCGGAUGUGCUUUCGGGUCUGAUGAGUCCGUUAGGACGAAACAG [C16G G33U], 1.09.
With ACCGGAUGUGCUUUCGGGUCUGAUGAGUCCGUCAGGACGAAACAG [C16G G33C], the self-cleavage was determined as 0.956.
The figure for ACCGGAUGUGCUUUCGGGUCUGAUGAGUCCGUGAUGACGAAACAG [C16G G35U] is 0.472; for ACCGGAUGUGCUUUCGGGUCUGAUGAGUCCGUGAAGACGAAACAG [C16G G35A] it is 0.459; for ACCGGAUGUGCUUUCGGGUCUGAUGAGUCCGUGACGACGAAACAG [C16G G35C] it is 0.44.
With ACCGGAUGUGCUUUCGGGUCUGAUGAGUCAGUGAGGACGAAACAG [C16G C30A] the figure was 0.712; with ACCGGAUGUGCUUUCGGGUCUGAUGAGUCGGUGAGGACGAAACAG [C16G C30G], 0.473; with ACCGGAUGUGCUUUCGGGUCUGAUGAGUCUGUGAGGACGAAACAG [C16G C30U], 0.899.
As for ACCGGAUGUGCUUUCGGGUCUGAUGAGUCCGUGAGGACGAACCAG [C16G A42C], the self-cleavage stood at 0.334.
